According to the DeepSol protein solubility set:

assay: soluble on expression in E. coli; label from the status in PepcDB or PDB records

Sequence	soluble on expression in E. coli
MSLTSSQKDIINDILSAMQCYPENEAFIIDDKHYTYAQLGEITASITHSLSEIKDEKIGIVAENRIETYAAILAVLAGGKTYVILHPAYPEERNLKIAALAGLRTLLCTSDTDRSAFGTGHFRIIDTDRLPGKAQSEQQSHSSNEERNAYIIFTSGSTGEPKGVPITRANLNAFYRAYSLLDWNLDEHDRMLQMFELTFDVSVVSLLYPLTLGAAVYTVGHQDVKHFKVFELLEKYQLTFATVTPSLLQLLSPYFDEINLPSLKYLGVSAEASQTELLERFRKSVPNATFINLYGPTEATIYCTCYRIPASDKCKHYNGMVAIGKPFPGIRAIIADEEGNELPQGETGELWVSGRQVMKGYLDDPEKSALVLIHRPDGQIYYRTGDLCILDSDGDIIYCGRKDYQVKIQGFRIELSEIEYTAQSFFKTPCSVAAVPLLCDGICNELHLAVETTECTQSALIEYLKEKLPKYMLPKQIHCISQFPVTNSNKTDRKKIAELIKEGHHHHHH	soluble
MSLTTDTTSQTVLRSRKDVPSSDCWDTKSLYASREAWKKDLENLCGKEAPFWPHLNEKQFHIEQPSSLYKLLTEVFSIERTLEKLYVYAHLTHDEDISNQEATADLKSITYLLTSFSEEISWIQPALIALPQKISEELLTSPELQTYHFYLKKIFRLAPHTGTSREEKILASSSPALEVAYKTFSSLTDSEIPFGEAVDSEGKSHPLSHALSSLYMQSPDRELRKSAYQKQCQRYHGYRLSLANLLNGKIQAHLFNAKAHNYKSCLEAALFQNNISTSVVTTLIETVKQHTHLMTKYFQLKQKALGLPDFHFYDVYAPIAASEFARHYSYEEAVSLICDSLTPLGDNYVEALRKGLTSEGWVDKYENQNKRSGAYSSGCYDSKPYILMNYTGTLYDVSVVAHEGGHSMHSFLSHKHQQYHEAQYPIFLAEIASTLNETLLMEFLLKNAPSKEEKIAILSRSLDTIFATLFRQTLFADFELEAHSAAEQGIPLTEEFFSQSYKKLQHIFYGDCVTFDELSSIEWARIPHFYYNFYVYQYATGIIASLCFSEKILSKEAGAQEAYLTFLQSGGSDFPIEILKKSGLDMTSSAPMLKAFSYIERKLDELTNLLEGHHHHHH	soluble
MSLTTQLGLPDDIQACLFDLDGVVTRTAVVHAAAWKATFDTFLRERDGADFRPFTDSDYDQYVDGRPRADGVRSFLASRGVELPEGTPDDPPDARTVNGVGNRKNELLLEKIRTDGVEPYEGTLRYIDAVRAAGLATAIVSSSANTRDVLRSIDAERLFDVRIDGVVARERKLPGKPHPDTFLAAARDLGVEASRAAVFEDALAGMDAGRSGHFGYVVGVDRVGQTDALYAHGADRVVKDLAELGDHAEGHHHHHH	soluble
MSLTVFKSPITGRTYHLVFNDEFDDGVIDTLKWDTRSRRSPFTRRGMYQEKPYYVLCHEDWTKELHGELRLEVSKYPTQNNVVMTGGILSLGRFMARYGYYETKASFRDCIGEGYWPAFWIHFDEADKYGKGTEIDVFEYIPKDKQIFQTLHWYKKQAMEEQQSEVQHAALDYDKSGQFKEHRSSTKYFVLDEAQSKEHTFAVEWTPEELIFYTDGKVTRRVNRKDDPKQVPSAYQMVYFSCSAGEWGGNVMENQVPAYVYFDYCRCYQESDQDAIYTVKGNGMKVPASRRVGKEGHHHHHH	not soluble
MSLTVVQLTDIHFQWPYPYVTKKKLASIVEKVNEINPDFIFLTGDFISRYRTYNISKYNTETIAFYLGQLRAKRGIYAIQGNNDRCAGDMLLKAFKENGVRMLMNEGIIDDDISITGILSSKNIDICNTWLNQTKIPDAPLKILLSHQPDTALVTYPFFDLQFSGHTHGGQCIAPFGIGPILHPKMGHKFIVGVYKIGNMILHVSTGIGISPLPKPLVRFNNIAEVSVIRVVPEEGHHHHHH	not soluble
MSLTYDLIITDSHVMTPNGMVEKNIVIDSGKIKLITNDTPTCDKKIKGSGLVSIPGVIDPHVHYGVYSPIDQAAKTESHAAAIGGVTTMIRMFRLEGSYKDSLQKHLLASQNSHYIDYTIHASIFDTSQIDEMKYCTENQILSFKIYMNLGGDVGHVYMEMNPGEEKLISSHVNVTNELVEKIVKRAGELKCPVLVHAEDYQECACAMKTEQEKKHDGLNSWSESRSPDFEAKSIKTICEYGRKYDCVIYFVHIGSKLALEQIQIEKNNGTKIFVETCPHYLTLSHETQDGYLAKVMPPIRTKNDVEYVWESLQKNHINTIGTDHVANQLKLKLGGDDVWGALAGFPGIGTSLPILLSEGINKNRITLDQLVNLTSANTSKIFGLSDKGNISTGYEGHHHHHH	soluble
